This is an account of results in patent US20260041733A1, “COMBINATION FOR USE IN OPHTHALMOLOGY” (Dompe' farmaceutici SPA, priority 2022, published 2026).

One series concerns male Sprague-Dawley rats. In words: Eye wiping test (ocular discomfort after ocular administration). It counts as in vivo. The conditions noted are these: 3.5 μg/ml sesamin with 20 μg/ml rhNGF in Vehicle 2. The procedure:
An eye wiping test was carried out to evaluate ocular discomfort induced by ocular administration of rhNGF alone or in combination with Sesamin.
The experiments were performed on male Sprague-Dawley rats (300-320 g), Charles River, Italy) housed in the animal care facility of the Department of Pharmacy, University of Naples. Food and water were available ad libitum.
Rats were divided in 4 experimental groups:
Animals were treated with 20 μg/ml of rhNGF in Vehicle 1 (n=8);
Animals were treated with 20 μg/ml of rhNGF and 3.5 μg/ml sesamin in Vehicle 2 (n=8) All compositions tested were prepared immediately before use from lyophilized placebo or rhNGF reconstituted in a volume of 1 mL of the vehicle.
The treatments described above were administered as eye drops 1 time per day, in a volume of 10 μL. Following the application, the eye wiping test was performed.
Animals were placed on a 50×50 cm table for 10 min habituation period. 10 μL of solutions were applied into the left eye of animals and the number of eye wipes was counted for 30 min.
All data are presented as the mean±SEM. Analysis of data were conducted using GraphPad Prism 8. Statistical analysis was performed by two-way ANOVA followed by Tukey's test for multiple comparisons, as appropriate. Statistical significance was set at *p<0.05.

The test system of series [1] is Dorsal Root Ganglia (DRG) neurons. In words: Levels of autophagy pathway proteins (Western blot) in F11 cells differentiated into DRGs. It counts as cell-based. The note with it: 24 h. The procedure: The effect of NGF on autophagy in the presence and absence of sesamin was assessed on Dorsal Root Ganglia (DRG) neurons, involved in the development of NGF sensory side effects, by analysing the impact of the different treatments on the levels of the above proteins involved in autophagy pathway. F11 cells were cultured in Dulbecco's modified Eagle's medium (DMEM, Cat #D6546; Sigma-Aldrich, St. Louis, MO, USA), with 10% fetal bovine serum, 2 mM glutamine (Sigma-Aldrich, USA). Cells were incubated at 37° C. in a humidified atmosphere with 5% CO2. Cells were then seeded at 7000 cells/cm^2 and were maintained in a low serum medium for almost 2 weeks to induce differentiation into DRGs. The complete composition of the low serum medium was: DMEM supplemented 2 mM glutamine, 1% FBS (Sigma-Aldrich, St. Louis, MO, USA). The medium was replaced every 2 days. Immunofluorescence was used to confirm cell differentiation (data not shown). F11 cells maintained in 10% FBS medium were used as control (control, undifferentiated). Morphological and functional analyses were performed after two weeks of treatment with low serum, at complete differentiation of the cells. The undifferentiated control cells underwent the same analysis at 7 days to avoid dramatic cell death due to confluence. The fully differentiated cells were treated with 1 μM rhNGF alone or in combination with 30 nM Sesamin, for 24 h. Control and treated cells were collected and lysed in ice-cold RIPA buffer (Thermo Scientific, USA) with freshly added protease and phosphatase inhibitors. Protein lysates (30 μg) were separated on 4%-12% precast gel using MOPS or MES buffers (Thermo Scientific, USA) depending on the size of the proteins of interest. Then proteins were electroblotted on polyvinyldifluoride membrane (PVDF; Sigma, St Loius, USA) and nonspecific binding sites were blocked in Blocking buffer (Thermo Scientific) for 15 minutes at RT. Afterward, membranes were incubated overnight at 4° C. with the following primary antibodies, diluted in Blocking buffer: rabbit anti-Atg5 1:1000 (Abcam, ab228668, UK), rabbit anti-LC3 1:2000 (Abcam, ab192890, UK), rabbit anti-Beclin 1:2000 (Abcam, ab207612, UK), rabbit anti-P62 1:500 (Abcam, ab91526, UK), rabbit anti-vinculin 1:1000 (Abcam, ab219649, UK) and HRP-conjugated Actin 1:1000 (Cell Signaling, #5125, USA). As secondary antibodies, peroxidase-conjugated anti-rabbit IgG 1:10000 (Abcam, UK) were used. Immunoreactive bands were visualized by ECL (Thermo Scientific, USA), according to the manufacturer's instructions. The relative optical densities of the immunoreactive bands were determined and normalized with respect to those of the anti-Vinculin or anti-Actin (depending on the molecular weight of the analyzed protein and the gel/buffer used), using ImageJ software. The phosphorylated forms were normalized upon the total form.

For series [2] the following is noted: topical administration, 200 μg/mL NGF; cited from earlier work.
The nature of series [3]: In-use stability of rhNGF lyophilized formulation (Formulation 6) after reconstitution: oxidized NGF impurity. It counts as physicochemical. The procedure: An in-use stability study of said rhNGF lyophilized formulation (according to Formulation 6) after reconstitution with sesamin-containing reconstitution solvent B or with WFI was carried out as follows.
The tests were performed on said lyophilized formulation reconstituted in solvent B or in WFI, stored at different temperatures (+2/+8° C. or 25° C.-60% Relative Humidity), over 28 days, to verify the possible impurity formation in rhNGF reconstituted liquid formulations, in glass vials.
The impurity was determined as the percentage (w/w) of oxidized NGF in respect of the total NGF comprised in the reconstituted liquid formulation.

The test system of another series is patients. The conditions noted are these: cited from earlier work.
Setting [4] is: differentiated F11 cells, 1 μM rhNGF alone, vs control (FIG. 1).

With `c1cc2c(cc1[C@H]1OC[C@H]3[C@@H]1CO[C@@H]3c1ccc3c(c1)OCO3)OCO2` [sesamin, 5,5′-[(1S,3aR,4S,6aR)-Tetrahydro-1H,3H-furo[3,4-c]furan-1,4-diyl]bis(2H-1,3-benzodioxole)], in the series with male Sprague-Dawley rats, the “eye discomfort induced by rhNGF” value is on record as “can relieve the eye discomfort”. In addition, the autophagy entry in series [1] (30 nM Sesamin combined with 1 μM rhNGF, vs NGF alone) is “significantly reduced”.

As for “rhNGF: recombinant human nerve growth factor, amino acid sequence SEQ ID NO. 1 and/or SEQ ID NO. 2”, the “levels of the protein in all ocular tissues, included the retina and optic nerve” value in series [2] is on record as “high levels”. In addition, the “time of peak increase in ocular tissues after administration” value in series [2] was 6 h. Besides, the “NGF oxidation product %” value in series [3] (reconstituted with WFI, +2/+8° C., day 0) is reported as 4.00%; in series [3] (reconstituted with WFI, +2/+8° C., day 28), 4.86%; in series [3] (reconstituted with WFI, +25° C./60% Relative Humidity, day 0), 4.00%; in series [3] (reconstituted with WFI, +25° C./60% Relative Humidity, day 28) it was 6.48%; in series [3] (reconstituted with reconstitution solvent B (sesamin 1.5 μg/mL), +2/+8° C., day 0), 3.11%; in series [3] (reconstituted with reconstitution solvent B (sesamin 1.5 μg/mL), +2/+8° C., day 28) it was 4.21%. Moreover, the “NGF oxidation product %” value in series [3] (reconstituted with reconstitution solvent B (sesamin 1.5 μg/mL), +25° C./60% Relative Humidity, day 0) is 3.11%; in series [3] (reconstituted with reconstitution solvent B (sesamin 1.5 μg/mL), +25° C./60% Relative Humidity, day 28), 5.06%. Moreover, the “primary side effect reported by patients after topical ocular administration” value in the series with patients (clinical trials or approved indications, mild and transient) is on record as “eye discomfort”. Further, the “safety of topical administration on the ocular surface” value in the series with patients (clinical trials) is “safe”. For the same molecule, the “level of P62 (autophagy-specific substrate)” value in series [1] (setting [4]) is “decreased”. Further, the “levels of Atg5” value in series [1] (setting [4]) was “significantly increased”. Moreover, the “levels of Beclin” value in series [1] (setting [4]) is reported as “significantly increased”. The “levels of LC3-I” value in series [1] (setting [4]) was “increased levels”. Besides, the “levels of LC3-II” value in series [1] (setting [4]) was “increased levels”.
